Results on one molecule are retold here after patent US20110262944A1 (UNIVERSITY OF TSUKUBA, published 2011).

Common to all, as to assay: Ni-NTA co-precipitation after co-expression in E. coli
The target of assay [1] is T1, PB2-N (residues 1-86) carrying a hexa-histidine tag at the N-terminal end (influenza A/Puerto Rico/8/34 H1N1, UniProt A4GCJ6 1-86).
T1 sequence: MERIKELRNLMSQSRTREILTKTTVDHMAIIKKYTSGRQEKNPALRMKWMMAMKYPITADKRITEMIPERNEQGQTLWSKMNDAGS

The target of assay [2] is T2, PB2 residues 37-174 with N-terminal hexa-histidine tag and TEV cleavage site (influenza A/Puerto Rico/8/34 H1N1, UniProt A4GCJ6 37-174).
T2 sequence: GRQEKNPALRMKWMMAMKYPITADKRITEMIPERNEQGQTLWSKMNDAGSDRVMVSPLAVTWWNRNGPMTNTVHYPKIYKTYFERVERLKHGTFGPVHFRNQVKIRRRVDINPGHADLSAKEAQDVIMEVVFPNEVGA

The target in assay [3] is PB2 residues 252-490 with N-terminal hexa-histidine tag and TEV cleavage site (influenza A/Puerto Rico/8/34 H1N1, UniProt B4URE6 252-490).

B1: PB1-C (C-terminal residues 678-757 of the RNA polymerase PB1 subunit, influenza A/Puerto Rico/8/34 H1N1) (other)
chain: SQRGVLEDEQMYQRCCNLFEKFFPSSSYRRPVGISSMVEAMVSRARIDARIDFESGRIKKEEFTEIMKICSTIEELRRQK
B1: the figures for the binding result in assay [1], in assay [2] and in assay [3] were “binds”, “no binding” and “no binding”, respectively.
